From patent publication US20120196804A1 (INDIANA UNIVERSITY RESEARCH AND TECHNOLOGY, published 2012)

What was measured:
glucagon receptor = assay: cell-based or functional assay
GLP-1 receptor = assay: cell-based or functional assay

## HSQGTFTSDYSKYLDSRRAQDFVQWLMNTKRNR [Oxyntomodulin KRNR]
Glucagon receptor
  cAMP Induction, EC50 (luciferase reporter, HEK293): 2.77 nM
GLP-1 receptor
  cAMP Induction, EC50 (luciferase reporter, HEK293): 3.21 nM

## HSQGTFTSDYSRYLDSRRAQDFVQWLMNK [Glucagon R12 K29]
Glucagon receptor
  cAMP Induction, EC50 (luciferase reporter, HEK293): 0.81 nM
GLP-1 receptor
  cAMP Induction, EC50 (luciferase reporter, HEK293): 0.41 nM

## HSQGTFTSDYSKYLDSRRAQDFVQWLMNTGPSSGAPPPS (C-terminal amide) [Glucagon-Cex]
Glucagon receptor
  cAMP Induction, EC50 (luciferase reporter, HEK293): 0.25 nM
GLP-1 receptor
  cAMP Induction, EC50 (luciferase reporter, HEK293): 2.75 nM
